± gives the standard deviation of the averaged measurements.
Experiments:
[1] = system: MCF7; assay: percentage of EdU-negative (G0-arrested) nuclei per well, 72 h; higher = more G0 arrest; conditions: reference: sequence is the full UniProt precursor, the tested protein was the secreted form or ectodomain
[2] = system: hTERT-HMEC; assay: as above; conditions: reference: sequence is the full UniProt precursor, the tested protein was the secreted form or ectodomain
[3] = protein concentration 0.0085 µM
[4] = protein concentration 0.0225 µM
[5] = protein concentration 0.007735 µM
[6] = protein concentration 0.07735 µM
[7] = protein concentration 0.0185 µM
[8] = protein concentration 0.03125 µM
[9] = protein concentration 0.3125 µM
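Also: secreted proteins added to cultured cells, EdU pulse at the end, nuclei found by Hoechst imaging, EdU status from nuclear versus surrounding ring intensity ratio, PBS as neutral control.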

## MVSQALRLLCLLLGLQGCLAAGGVAKASGGETRDMPWKPGPHRVFVTQEEAHGVLHRRRRANAFLEELRPGSLERECKEEQCSFEEAREIFKDAERTKLFWISYSDGDQCASSPCQNGGSCKDQLQSYICFCLPAFEGRNCETHKDDQLICVNENGGCEQYCSDHTGTKRSCRCHEGYSLLADGVSCTPTVEYPCGKIPILEKRNASKPQGRIVGGKVCPKGECPWQVLLLVNGAQLCGGTLINTIWVVSAAHCFDKIKNWRNLIAVLGEHDLSEHDGDEQSRRVAQVIIPSTYVPGTTNHDIALLRLHQPVVLTDHVVPLCLPERTFSERTLAFVRFSLVSGWGQLLDRGATALELMVLNVPRLMTQDCLQQSRKVGDSPNITEYMFCAGYSDGSKDSCKGDSGGPHATHYRGTWYLTGIVSWGQGCATVGHFGVYTRVSQYIEWLQKLMRSEPRPGVLLRAPFP
[1]; [3]
  percentage of EdU-negative: 24.3 ± 4.2%
[1]; protein concentration 0.085 µM
  percentage of EdU-negative: 24.2 ± 0.32%
[2]; [3]
  percentage of EdU-negative: 4.77 ± 0.36%
[2]; protein concentration 0.085 µM
  percentage of EdU-negative: 5.93 ± 1.7%

## MVSRMVSTMLSGLLFWLASGWTPAFAYSPRTPDRVSEADIQRLLHGVMEQLGIARPRVEYPAHQAMNLVGPQSIEGGAHEGLQHLGPFGNIPNIVAELTGDNIPKDFSEDQGYPDPPNPCPVGKTADDGCLENTPDTAEFSREFQLHQHLFDPEHDYPGLGKWNKKLLYEKMKGGERRKRRSVNPYLQGQRLDNVVAKKSVPHFSDEDKDPE
[1]; [4]
  percentage of EdU-negative: 26.6 ± 1.8%
[1]; protein concentration 0.225 µM
  percentage of EdU-negative: 25.7 ± 2.2%
[2]; [4]
  percentage of EdU-negative: 5.414 ± 0.019%
[2]; protein concentration 0.225 µM
  percentage of EdU-negative: 5.28 ± 0.35%

## MVSYWDTGVLLCALLSCLLLTGSSSGSKLKDPELSLKGTQHIMQAGQTLHLQCRGEAAHKWSLPEMVSKESERLSITKSACGRNGKQFCSTLTLNTAQANHTGFYSCKYLAVPTSKKKETESAIYIFISDTGRPFVEMYSEIPEIIHMTEGRELVIPCRVTSPNITVTLKKFPLDTLIPDGKRIIWDSRKGFIISNATYKEIGLLTCEATVNGHLYKTNYLTHRQTNTIIDVQISTPRPVKLLRGHTLVLNCTATTPLNTRVQMTWSYPDEKNKRASVRRRIDQSNSHANIFYSVLTIDKMQNKDKGLYTCRVRSGPSFKSVNTSVHIYDKAFITVKHRKQQVLETVAGKRSYRLSMKVKAFPSPEVVWLKDGLPATEKSARYLTRGYSLIIKDVTEEDAGNYTILLSIKQSNVFKNLTATLIVNVKPQIYEKAVSSFPDPALYPLGSRQILTCTAYGIPQPTIKWFWHPCNHNHSEARCDFCSNNEESFILDADSNMGNRIESITQRMAIIEGKNKMASTLVVADSRISGIYICIASNKVGTVGRNISFYITDVPNGFHVNLEKMPTEGEDLKLSCTVNKFLYRDVTWILLRTVNNRTMHYSISKQKMAITKEHSITLNLTIMNVSLQDSGTYACRARNVYTGEEILQKKEITIRDQEAPYLLRNLSDHTVAISSSTTLDCHANGVPEPQITWFKNNHKIQQEPGIILGPGSSTLFIERVTEEDEGVYHCKATNQKGSVESSAYLTVQGTSDKSNLELITLTCTCVAATLFWLLLTLFIRKMKRSSSEIKTDYLSIIMDPDEVPLDEQCERLPYDASKWEFARERLKLGKSLGRGAFGKVVQASAFGIKKSPTCRTVAVKMLKEGATASEYKALMTELKILTHIGHHLNVVNLLGACTKQGGPLMVIVEYCKYGNLSNYLKSKRDLFFLNKDAALHMEPKKEKMEPGLEQGKKPRLDSVTSSESFASSGFQEDKSLSDVEEEEDSDGFYKEPITMEDLISYSFQVARGMEFLSSRKCIHRDLAARNILLSENNVVKICDFGLARDIYKNPDYVRKGDTRLPLKWMAPESIFDKIYSTKSDVWSYGVLLWEIFSLGGSPYPGVQMDEDFCSRLREGMRMRAPEYSTPEIYQIMLDCWHRDPKERPRFAELVEKLGDLLQANVQQDGKDYIPINAILTGNSGFTYSTPAFSEDFFKESISAPKFNSGSSDDVRYVNAFKFMSLERIKTFEELLPNATSMFDDYQGDSSTLLASPMLKRFTWTDSKPKASLKIDLRVTSKSKESGLSDVSRPSFCHSSCGHVSEGKRRFTYDHAELERKIACCSPPPDYNSVVLYSTPPI
[1]; [5]
  percentage of EdU-negative: 26.6 ± 3%
[1]; [6]
  percentage of EdU-negative: 28.1 ± 1.6%
[2]; [5]
  percentage of EdU-negative: 4.97 ± 0.54%
[2]; [6]
  percentage of EdU-negative: 5.7 ± 0.039%

## MVTLRKRTLKVLTFLVLFIFLTSFFLNYSHTMVATTWFPKQMVLELSENLKRLIKHRPCTCTHCIGQRKLSAWFDERFNQTMQPLLTAQNALLEDDTYRWWLRLQREKKPNNLNDTIKELFRVVPGNVDPMLEKRSVGCRRCAVVGNSGNLRESSYGPEIDSHDFVLRMNKAPTAGFEADVGTKTTHHLVYPESFRELGDNVSMILVPFKTIDLEWVVSAITTGTISHTYIPVPAKIRVKQDKILIYHPAFIKYVFDNWLQGHGRYPSTGILSVIFSMHVCDEVDLYGFGADSKGNWHHYWENNPSAGAFRKTGVHDADFESNVTATLASINKIRIFKGR
[1]; [4]
  percentage of EdU-negative: 24.2 ± 3.6%
[1]; protein concentration 0.225 µM
  percentage of EdU-negative: 28.079 ± 0.0073%
[2]; [4]
  percentage of EdU-negative: 5.6 ± 0.99%
[2]; protein concentration 0.225 µM
  percentage of EdU-negative: 6.41 ± 0.73%

## MVTSSFPISVAVFALITLQVGTQDSFIAAVYEHAVILPNKTETPVSQEDALNLMNENIDILETAIKQAAEQGARIIVTPEDALYGWKFTRETVFPYLEDIPDPQVNWIPCQDPHRFGHTPVQARLSCLAKDNSIYVLANLGDKKPCNSRDSTCPPNGYFQYNTNVVYNTEGKLVARYHKYHLYSEPQFNVPEKPELVTFNTAFGRFGIFTCFDIFFYDPGVTLVKDFHVDTILFPTAWMNVLPLLTAIEFHSAWAMGMGVNLLVANTHHVSLNMTGSGIYAPNGPKVYHYDMKTELGKLLLSEVDSHPLSSLAYPTAVNWNAYATTIKPFPVQKNTFRGFISRDGFNFTELFENAGNLTVCQKELCCHLSYRMLQKEENEVYVLGAFTGLHGRRRREYWQVCTLLKCKTTNLTTCGRPVETASTRFEMFSLSGTFGTEYVFPEVLLTEIHLSPGKFEVLKDGRLVNKNGSSGPILTVSLFGRWYTKDSLYSSCGTSNSAITYLLIFILLMIIALQNIVML
[1]; [7]
  percentage of EdU-negative: 25.8 ± 0.6%
[1]; protein concentration 0.185 µM
  percentage of EdU-negative: 28.11 ± 0.25%
[2]; [7]
  percentage of EdU-negative: 3.63 ± 0.35%
[2]; protein concentration 0.185 µM
  percentage of EdU-negative: 6.84 ± 0.58%

## MVWKVAVFLSVALGIGAVPIDDPEDGGKHWVVIVAGSNGWYNYRHQADACHAYQIIHRNGIPDEQIVVMMYDDIAYSEDNPTPGIVINRPNGTDVYQGVPKDYTGEDVTPQNFLAVLRGDAEAVKGIGSGKVLKSGPQDHVFIYFTDHGSTGILVFPNEDLHVKDLNETIHYMYKHKMYRKMVFYIEACESGSMMNHLPDNINVYATTAANPRESSYACYYDEKRSTYLGDWYSVNWMEDSDVEDLTKETLHKQYHLVKSHTNTSHVMQYGNKTISTMKVMQFQGMKRKASSPVPLPPVTHLDLTPSPDVPLTIMKRKLMNTNDLEESRQLTEEIQRHLDARHLIEKSVRKIVSLLAASEAEVEQLLSERAPLTGHSCYPEALLHFRTHCFNWHSPTYEYALRHLYVLVNLCEKPYPLHRIKLSMDHVCLGHY
[1]; [8]
  percentage of EdU-negative: 26.412 ± 0.015%
[1]; [9]
  percentage of EdU-negative: 26 ± 1.2%
[2]; [8]
  percentage of EdU-negative: 5.13 ± 0.28%
[2]; [9]
  percentage of EdU-negative: 5.28 ± 0.11%

## MVWKWMPLLLLLVCVATMCSAQDRTDLLNVCMDAKHHKTKPGPEDKLHDQCSPWKKNACCTASTSQELHKDTSRLYNFNWDHCGKMEPACKRHFIQDTCLYECSPNLGPWIQQVNQSWRKERFLDVPLCKEDCQRWWEDCHTSHTCKSNWHRGWDWTSGVNKCPAGALCRTFESYFPTPAALCEGLWSHSYKVSNYSRGSGRCIQMWFDSAQGNPNEEVARFYAAAMHVNAGEMLHGTGGLLLSLALMLQLWLLG
[1]; [4]
  percentage of EdU-negative: 28.59 ± 0.11%
[1]; protein concentration 0.225 µM
  percentage of EdU-negative: 27.6 ± 2.5%
[2]; [4]
  percentage of EdU-negative: 4.38 ± 0.49%
[2]; protein concentration 0.225 µM
  percentage of EdU-negative: 5.92 ± 0.29%

Source: the supplement of paper PMC11316812
